Results published in the MegaScale stability set (Tsuboyama et al. 2023).

B1: 2K2A (parent)
chain: ELREAFRLYDKEGNGYISTDVMREILAELDETLSSEDLDAMIDEIDADGSGTVDFEEFMGVMT

Variants of: B1
Experiment: folding stability dG (cDNA display proteolysis); higher = more stable
Details: PBS, room temperature

| Variant | folding stability dG [kcal/mol] |
| --- | --- |
| ELREAFRLYDKEGNGYISTDVMREILAELDETLSSEDLDAMIREIDADGSGTVDFEEFMGVMT [D43R] | 2.35 |
| ELREAFRLYDKEGNGYISTDVMREILAELDETLSSEDLDAMIIEIDADGSGTVDFEEFMGVMT [D43I] | 2.04 |
| ELREAFRLYDKEGNGYISTDVMREILAELDETLSSEDLDAMISEIDADGSGTVDFEEFMGVMT [D43S] | 2.18 |
| ELREAFRLYDKEGNGYISTDVMREILAELDETLSSEDLDAMILEIDADGSGTVDFEEFMGVMT [D43L] | 2.23 |
| ELREAFRLYDKEGNGYISTDVMREILAELDETLSSEDLDAMIMEIDADGSGTVDFEEFMGVMT [D43M] | 2.32 |
| ELREAFRLYDKEGNGYISTDVMREILAELDETLSSEDLDAMIYEIDADGSGTVDFEEFMGVMT [D43Y] | 2.16 |
| ELREAFRLYDKEGNGYISTDVMREILAELDETLSSEDLDAMIQEIDADGSGTVDFEEFMGVMT [D43Q] | 2.17 |
| ELREAFRLYDKEGNGYISTDVMREILAELDETLSSEDLDAMICEIDADGSGTVDFEEFMGVMT [D43C] | 2.1 |
| ELREAFRLYDKEGNGYISTDVMREILAELDETLSSEDLDAMINEIDADGSGTVDFEEFMGVMT [D43N] | 2.2 |
| ELREAFRLYDKEGNGYISTDVMREILAELDETLSSEDLDAMIHEIDADGSGTVDFEEFMGVMT [D43H] | 2.16 |
| ELREAFRLYDKEGNGYISTDVMREILAELDETLSSEDLDAMIKEIDADGSGTVDFEEFMGVMT [D43K] | 2.26 |
| ELREAFRLYDKEGNGYISTDVMREILAELDETLSSEDLDAMIFEIDADGSGTVDFEEFMGVMT [D43F] | 2.13 |
| ELREAFRLYDKEGNGYISTDVMREILAELDETLSSEDLDAMIGEIDADGSGTVDFEEFMGVMT [D43G] | 1.87 |
| ELREAFRLYDKEGNGYISTDVMREILAELDETLSSEDLDAMIEEIDADGSGTVDFEEFMGVMT [D43E] | 2.03 |
| ELREAFRLYDKEGNGYISTDVMREILAELDETLSSEDLDAMIWEIDADGSGTVDFEEFMGVMT [D43W] | 2.16 |
| ELREAFRLYDKEGNGYISTDVMREILAELDETLSSEDLDAMIPEIDADGSGTVDFEEFMGVMT [D43P] | 0.558 |
| ELREAFRLYDKEGNGYISTDVMREILAELDETLSSEDLDAMIVEIDADGSGTVDFEEFMGVMT [D43V] | 1.96 |
| ELREAFRLYDKEGNGYISTDVMREILAELDETLSSEDLDAMITEIDADGSGTVDFEEFMGVMT [D43T] | 1.89 |
| ELREAFRLYDKEGNGYISTDVMREILAELDETLSSEDLDAMIAEIDADGSGTVDFEEFMGVMT [D43A] | 2.29 |
| ELREAFRLYDKEGNGYISTDVMREILAELDETLSSEDLDAMIDHIDADGSGTVDFEEFMGVMT [E44H] | 2.06 |
| ELREAFRLYDKEGNGYISTDVMREILAELDETLSSEDLDAMIDMIDADGSGTVDFEEFMGVMT [E44M] | 2.14 |

| Variant | folding stability dG [kcal/mol] |
| --- | --- |
| ELREAFRLYDKEGNGYISTDVMREILAELDETLSSEDLDAMIDWIDADGSGTVDFEEFMGVMT [E44W] | 2.19 |
| ELREAFRLYDKEGNGYISTDVMREILAELDETLSSEDLDAMIDDIDADGSGTVDFEEFMGVMT [E44D] | 1.76 |
| ELREAFRLYDKEGNGYISTDVMREILAELDETLSSEDLDAMIDRIDADGSGTVDFEEFMGVMT [E44R] | 2.16 |
| ELREAFRLYDKEGNGYISTDVMREILAELDETLSSEDLDAMIDCIDADGSGTVDFEEFMGVMT [E44C] | 2.19 |
| ELREAFRLYDKEGNGYISTDVMREILAELDETLSSEDLDAMIDPIDADGSGTVDFEEFMGVMT [E44P] | 0.7 |
| ELREAFRLYDKEGNGYISTDVMREILAELDETLSSEDLDAMIDYIDADGSGTVDFEEFMGVMT [E44Y] | 2.02 |
| ELREAFRLYDKEGNGYISTDVMREILAELDETLSSEDLDAMIDKIDADGSGTVDFEEFMGVMT [E44K] | 2.14 |
| ELREAFRLYDKEGNGYISTDVMREILAELDETLSSEDLDAMIDGIDADGSGTVDFEEFMGVMT [E44G] | 1.85 |
| ELREAFRLYDKEGNGYISTDVMREILAELDETLSSEDLDAMIDFIDADGSGTVDFEEFMGVMT [E44F] | 2.17 |
| ELREAFRLYDKEGNGYISTDVMREILAELDETLSSEDLDAMIDAIDADGSGTVDFEEFMGVMT [E44A] | 2.12 |
| ELREAFRLYDKEGNGYISTDVMREILAELDETLSSEDLDAMIDSIDADGSGTVDFEEFMGVMT [E44S] | 2.02 |
| ELREAFRLYDKEGNGYISTDVMREILAELDETLSSEDLDAMIDLIDADGSGTVDFEEFMGVMT [E44L] | 2.19 |
| ELREAFRLYDKEGNGYISTDVMREILAELDETLSSEDLDAMIDQIDADGSGTVDFEEFMGVMT [E44Q] | 2.06 |
| ELREAFRLYDKEGNGYISTDVMREILAELDETLSSEDLDAMIDVIDADGSGTVDFEEFMGVMT [E44V] | 2.01 |
| ELREAFRLYDKEGNGYISTDVMREILAELDETLSSEDLDAMIDIIDADGSGTVDFEEFMGVMT [E44I] | 2.07 |
| ELREAFRLYDKEGNGYISTDVMREILAELDETLSSEDLDAMIDTIDADGSGTVDFEEFMGVMT [E44T] | 1.93 |
| ELREAFRLYDKEGNGYISTDVMREILAELDETLSSEDLDAMIDNIDADGSGTVDFEEFMGVMT [E44N] | 1.95 |
| ELREAFRLYDKEGNGYISTDVMREILAELDETLSSEDLDAMNDEIDADGSGTVDFEEFMGVMT [I42N] | -0.359 |
| ELREAFRLYDKEGNGYISTDVMREILAELDETLSSEDLDAMEDEIDADGSGTVDFEEFMGVMT [I42E] | -0.498 |
| ELREAFRLYDKEGNGYISTDVMREILAELDETLSSEDLDAMWDEIDADGSGTVDFEEFMGVMT [I42W] | 0.22 |
| ELREAFRLYDKEGNGYISTDVMREILAELDETLSSEDLDAMRDEIDADGSGTVDFEEFMGVMT [I42R] | -0.918 |
